Non-standard residues stand in square brackets, D forms with d. No end group written: not given here. Cit = NC(=O)NCCC[C@H](N)C(=O)O
Columns and labels:
[1] = target: T1, human recombinant histone H2A (human); assay: ELISA, 0.08 ug/well
T1 construct: Non-deiminated
Description: (§1) CFC-1 and CFC-0 were coated at the same concentration and served as positive and negative controls, respectively, for specific anti-citrulline reactivity and as coating controls. Non-coated wells were used to test for aspecific binding of the antibodies. […] Detection of bound anti-citrulline antibodies was performed by incubating the wells with rabbit-anti-human-HRP (1:2000) for one hour at RT followed by incubation with TMB substrate. The resulting OD (y-axis) is a measure for antibody binding. H1=recombinant histone 1; H1/p2=huPAD2 recombinant histone 1; H1/p4=huPAD4 recombinant histone 1 and so forth (x-axis).

[2] = target: T2, huPAD2 deiminated human recombinant histone H2A (human); assay: ELISA, 0.08 ug/well
T2 construct: also called H2A/p2
Description: as §1

[3] = target: T3, huPAD4 deiminated human recombinant histone H2A (human); assay: ELISA, 0.08 ug/well
T3 construct: also called H2A/p4; huPAD4 deiminated histone 2A
Description: as §1

[4] = target: T4, human recombinant histone H2B (human); assay: ELISA, 0.08 ug/well
T4 construct: Non-deiminated
Description: as §1

[5] = target: T5, huPAD2 deiminated human recombinant histone H2B (human); assay: ELISA, 0.08 ug/well
T5 construct: also called H2B/p2
Description: as §1

[6] = target: T6, huPAD4 deiminated human recombinant histone H2B (human); assay: ELISA, 0.08 ug/well
T6 construct: also called H2B/p4
Description: as §1

[7] = target: T7, huPAD2 deiminated human recombinant histone H3 (human); assay: ELISA, 0.08 ug/well
T7 construct: also called H3/p2
Description: as §1

[8] = target: T8, huPAD4 deiminated human recombinant histone H3 (human); assay: ELISA, 0.08 ug/well
T8 construct: also called H3/p4
Description: as §1

[9] = target: human recombinant histone H4 (human, UniProt P62805 2-103); assay: ELISA, 0.08 ug/well
Description: as §1

CFC-1 [10] = target: T9, CFC-1; assay: ELISA, 0.08 ug/well
T9 construct: Positive control for anti-citrulline reactivity; also called cfc1 XG
Description: as §1

CFC-1 [11] = target: T9, CFC-1; assay: peptide ELISA, 10 ug/well
Description: (§2) Biotin and citrulline-containing peptides derived from fibrinogen and vimentin were immobilized on NEUTRAVIDIN®-coated 96-well ELISA plates (0.3 μg/well). CFC-1 and CFC-0 were coated at the same concentration and served as positive and negative controls respectively for specific anti-citrulline reactivity and as coating controls. Non-coated wells were used to test for aspecific binding of the antibodies. […] Detection of bound anti-citrulline antibodies was performed by incubating the wells with rabbit-anti-human-HRP (1:2000) for one hour at RT followed by incubation with TMB substrate. The resulting OD (y-axis) is a measure for antibody binding.
(§3) Biotin-labeled and citrulline-containing fibrinogen and vimentin peptides (Table 5) were also tested for reactivity with the therapeutic antibodies. Peptides were coated on 96-well NEUTRAVIDIN®-ELISA plates.

msFibα XH [12] = target: T10, msFibα XH (mouse, X at position 15 is citrulline; biotin label); assay: peptide ELISA, 10 ug/well
T10 peptide: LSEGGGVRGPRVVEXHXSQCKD
Description: as §2, §3

msFibα XG [13] = target: T11, msFibα XG (mouse, X at position 8 is citrulline; biotin label); assay: peptide ELISA, 10 ug/well
T11 peptide: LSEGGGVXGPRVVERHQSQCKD
Description: as §2, §3

huFibα XH [14] = target: T12, huFibα XH (human, X at position 15 is citrulline; biotin label); assay: peptide ELISA, 10 ug/well
T12 peptide: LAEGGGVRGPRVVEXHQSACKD
Description: as §2, §3

huFibα XG [15] = target: T13, huFibα XG (human, X at position 8 is citrulline; biotin label); assay: peptide ELISA, 10 ug/well
T13 peptide: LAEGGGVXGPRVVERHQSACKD
Description: as §2, §3

msFibβ XG [16] = target: T14, msFibβ XG (mouse, also: biotin label); assay: peptide ELISA, 10 ug/well
T14 peptide: EPTDSLDA[Cit]GHRPVDRR
Description: as §2, §3

msVim XS/XL [17] = target: T15, msVim XS/XL (mouse, also: biotin label); assay: peptide ELISA, 10 ug/well
T15 construct: also called mouse vimentin peptide
T15 peptide: YVT[Cit]SSAV[Cit]L[Cit]SSVP
Description: as §2, §3

CFC-1 [18] = target: T9, CFC-1; assay: peptide ELISA, 0.08 ug/well
Description: as §2, §3

msFibα XH [19] = target: T10, msFibα XH; assay: peptide ELISA, 0.08 ug/well
Description: as §2, §3

msFibα XG [20] = target: T11, msFibα XG; assay: peptide ELISA, 0.08 ug/well
Description: as §2, §3

huFibα XH [21] = target: T12, huFibα XH; assay: peptide ELISA, 0.08 ug/well
Description: as §2, §3

huFibα XG [22] = target: T13, huFibα XG; assay: peptide ELISA, 0.08 ug/well
Description: as §2, §3

msFibβ XG [23] = target: T14, msFibβ XG; assay: peptide ELISA, 0.08 ug/well
Description: as §2, §3

msVim XS/XL [24] = target: T15, msVim XS/XL; assay: peptide ELISA, 0.08 ug/well
Description: as §2, §3

B1: RhmAb2.102 (antibody, human IgG1, lambda)
heavy: not shown
light: QSVLTQPPSMSAAPGQKVTISCSGSSSNIGNNYVSWYQQVPGTAPKLLIYDDNKRPSGIPGRFSGSKSATSATLGITGLQAGDEADYYCGSWDDNLSVVLFGGGTKLTVLGQPKAAPSVTLFPPSSEELQANKATLVCLISDFYPGAVTVAWKADSSPVKAGVETTTPSKQSNNKYAASSYLSLTPEQWKSHRSYSCQVTHEGSTVEKTVAPTECS
notes: Human IgG1 lambda; also called Rhm2.102
In the case of B1, the OD [1] is reported as 0.06 OD, the OD [2] is reported as 1.96 OD and the OD [3] is reported as 1.75 OD. For the same binder, the OD [4] was 0.054 OD, the OD [5] was 0.053 OD and the OD [6] was 0.052 OD. For the same binder, the OD [7] was 0.493 OD, the OD [8] was 0.093 OD and the OD [9] was 0.067 OD. The OD (CFC-1 [10]) was 2.15 OD, the OD (CFC-1 [11]) was 3.89 OD and the OD (msFibα XH [12]) was 0.154 OD. For the same binder, the OD (msFibα XG [13]) was 3.03 OD, the OD (huFibα XH [14]) was 0.179 OD and the OD (huFibα XG [15]) was 2.73 OD. For the same binder, the OD (msFibβ XG [16]) was 3.8 OD, the OD (msVim XS/XL [17]) was 3.69 OD and the OD (CFC-1 [18]) was 3.03 OD. It also gave an OD (msFibα XH [19]) of 0.076 OD, an OD (msFibα XG [20]) of 0.237 OD and an OD (huFibα XH [21]) of 0.08 OD. It also gave an OD (huFibα XG [22]) of 0.186 OD, an OD (msFibβ XG [23]) of 0.515 OD and an OD (msVim XS/XL [24]) of 0.515 OD.

From patent US20170298146A1 (MODIQUEST B V, published 2017)
